Measurements reported in patent publication US7521047 (GPC BIOTECH, dated 2009).
Where a chain is given by its changes, count along the chain named.

T1: HLA-DR (DRA*0101/DRB1*0401) on PRIESS cells (human, UniProt P01903 26-254; P01911 30-266)
T1 MHC II alpha: not shown
T1 MHC II beta: not shown

T2: human MHC class II DR protein (DRA*0101/DRB1*0401), purified from PRIESS cells (human, UniProt P01903 26-254; P01911 30-266, limits assumed)
T2 construct: mature; also called HLA-DR protein; MHCII
T2 MHC II alpha: not shown
T2 MHC II beta: not shown

B1: MS-GPC-8-6-2 Fab (Fab, V domains shown)
VH: QVQLKESGPALVKPTQTLTLTCTFSGFSLSTSGVGVGWIRQPPGKALEWLALIDWDDDKYYSTSLKTRLTISKDTSKNQVVLTMTNMDPVDTATYYCARSPRYRGAFDYWGQGTLVTVSS
VL: DIVLTQPPSVSGAPGQRVTISCSGSESNIGSNYVHWYQQLPGTAPKLLIYDNNQRPSGVPDRFSGSKSGTSASLAITGLQSEDEADYYCQSYDYDHYVFGGGTKLTVLG
notes: Fab: VH-CH1 with FLAG tag and STREP tag II, VL-CL; VH residue 1 is Q in Fab
B2: L243 (antibody, V domains shown)
VH: QIQLVQSGPELKKPGETVKISCKASGFTFTNYGMNWVKQAPGKGLKWMGWINTYTREPTYADDFKGRFAFSLETSASTAYLQINNLKNEDTAKYFCARDITAVVPTGFDYWGQGTTLTVSS
VL: DIQMTQSPASLSVSVGETVTITCRASENIYSNLAWYRQKQGKSPQLLVFAASNLADGVPSRFSGSGSGTQYSLKINSLQSEDFGDYYCQHFWTTPWAFGGGTNLEIK
B3: MS-GPC-8-6-47 Fab (Fab, V domains shown)
VH: B1 VH
VL: B1 VL with H35S
notes: as for B1
B4: MS-GPC-8-6-13 Fab (Fab, V domains shown)
VH: B1 VH
VL: B1 VL with S31A, H35T
notes: Fab: VH-CH1 with FLAG tag and STREP tag II, VL-CL; VH residue 1 is Q in Fab; also called 305D3
B5: MS-GPC-8-6-19 Fab (Fab, V domains shown)
VH: B1 VH
VL: B1 VL with H35A
notes: as for B1
B6: MS-GPC-8-6-27 Fab (Fab, V domains shown)
VH: B1 VH
VL: B1 VL with E26D, S31A, H35T
notes: as for B1
B7: MS-GPC-8-10-57 Fab (Fab, V domains shown)
VH: B1 VH
VL: B1 VL with S31N, H35Q, Y94L, D95I, H96R, Y97H
notes: Fab: VH-CH1 with FLAG tag and STREP tag II, VL-CL; VH residue 1 is Q in Fab; also called 1C7277
B8: MS-GPC-8-27-7 Fab (Fab, V domains shown)
VH: B1 VH
VL: B1 VL with S31N, H35G, Y94M, D95N, H96V, Y97H
notes: as for B1
B9: MS-GPC-8-27-10 Fab (Fab, V domains shown)
VH: B1 VH
VL: B1 VL with S31A, H35N, Y94M, D95N, H96V, Y97H
notes: as for B1
B10: MS-GPC-8-6-2 IgG (antibody, V domains shown)
VH: B1 VH
VL: B1 VL
B11: MS-GPC-8-6 IgG (antibody, V domains shown)
VH: B1 VH
VL: B1 VL with E26S, H35S
B12: MS-GPC-8-1 Fab (Fab, V domains shown)
VH: B1 VH
VL: B1 VL with E26S, H35S, Y94F, D95S
notes: as for B1
B13: MS-GPC-8-6-45 Fab (Fab, V domains shown)
VH: B1 VH
VL: B1 VL with S27P, H35F
notes: as for B1
B14: MS-GPC-8-9 Fab (Fab, V domains shown)
VH: B1 VH
VL: B1 VL with E26S, H35S, Y94I, D95Q, H96L, Y97H
notes: as for B1
B15: MS-GPC-8-10 Fab (Fab, V domains shown)
VH: B1 VH
VL: B1 VL with E26S, H35S, Y94L, D95I, H96R, Y97H
notes: as for B1
B16: MS-GPC-8-18 Fab (Fab, V domains shown)
VH: B1 VH
VL: B1 VL with E26S, H35S, Y94F, D95S, H96I
notes: as for B1
B17: MS-GPC-8-27 Fab (Fab, V domains shown)
VH: B1 VH
VL: B1 VL with E26S, H35S, Y94M, D95N, H96V, Y97H
notes: as for B1

Molecular target: T1, HLA-DR (DRA*0101/DRB1*0401) on PRIESS …
Assay: cell-based or functional assay

In the case of B1, the “EC50 of cell killing, cross-linked Fab, bivalent agent” value is reported as 8 nM.

B2 was tested, and the “EC50 of cell killing, mIgG” value was 47 nM.

The binders below were run against chimeric 0401-IE class II molecule on cells of transgenic mice (human/murine chimera) (assay: cell-based or functional assay).

In order of rising “IC50 of inhibition of IL-2 secretion from T-Hyb 1 cells” value:
1. B4  2.1 nM (half the concentration of the Fab)
2. B3  2.6 nM (half the concentration of the Fab)
3. B7  2.9 nM (half the concentration of the Fab)
4. B6  3 nM (half the concentration of the Fab)
5. B1  4.7 nM (half the concentration of the Fab)
6. B5  5.3 nM (half the concentration of the Fab)
7. B8  5.9 nM (half the concentration of the Fab)
8. B9  7.3 nM (half the concentration of the Fab)

In order of falling “Maximum inhibition(%) of IL-2 secretion” value:
1. B3  100%
2. B1  100%
3. B4  100%
4. B5  100%
5. B6  100%
6. B7  100%
7. B8  100%
8. B9  100%
9. B10  100%
10. B11  100%

In order of rising “IC50 of inhibition of IL-2 secretion from T-Hyb 1 cells” value:
1. B10  3.6 nM
2. B11  6.7 nM

Molecular target: T2, human MHC class II DR protein …
Assay: SPR (BIAcore), MHCII on CM5 chip

In order of rising Kd:
1. B9  3.01 nM
2. B3  3.18 nM
3. B8  3.3 nM
4. B6  6.3 nM
5. B1  7.61 nM
6. B13  8.63 nM
7. B5  8.74 nM
8. B16  78.3 nM
9. B14  90.1 nM
10. B12  108 nM

In order of rising koff:
1. B9  0.00053 s⁻¹
2. B8  0.00057 s⁻¹
3. B3  0.00062 s⁻¹
4. B1  0.00094 s⁻¹
5. B5  0.00096 s⁻¹
6. B13  0.00103 s⁻¹
7. B6  0.0011 s⁻¹
8. B17  0.0066 s⁻¹
9. B15  0.007 s⁻¹
10. B16  0.0083 s⁻¹
11. B14  0.0166 s⁻¹
12. B12  0.0209 s⁻¹

In order of rising kon:
1. B16  106000 M⁻¹ s⁻¹
2. B5  110000 M⁻¹ s⁻¹
3. B13  120000 M⁻¹ s⁻¹
4. B1  123000 M⁻¹ s⁻¹
5. B8  174000 M⁻¹ s⁻¹
6. B9  176000 M⁻¹ s⁻¹
7. B6  180000 M⁻¹ s⁻¹
8. B14  185000 M⁻¹ s⁻¹
9. B12  193000 M⁻¹ s⁻¹
10. B3  197000 M⁻¹ s⁻¹

Molecular target: T2, human MHC class II DR protein …
Assay: SPR (BIAcore), MHCII on CM5 chip
Remark: another data set of the same source

In order of falling Kd:
1. B5  9 nM
2. B13  8.6 nM
3. B1  7.6 nM
4. B6  6.3 nM
5. B8  3.3 nM
6. B3  3.2 nM
7. B4  3 nM
8. B9  3 nM

In order of rising koff:
1. B9  0.00053 s⁻¹
2. B4  0.00055 s⁻¹
3. B8  0.00057 s⁻¹
4. B3  0.00062 s⁻¹
5. B1  0.00094 s⁻¹
6. B5  0.001 s⁻¹
7. B13  0.00103 s⁻¹
8. B6  0.0011 s⁻¹

In order of rising kon:
1. B5  110000 M⁻¹ s⁻¹
2. B1  120000 M⁻¹ s⁻¹
3. B13  120000 M⁻¹ s⁻¹
4. B8  170000 M⁻¹ s⁻¹
5. B6  180000 M⁻¹ s⁻¹
6. B9  180000 M⁻¹ s⁻¹
7. B4  190000 M⁻¹ s⁻¹
8. B3  200000 M⁻¹ s⁻¹

Molecular target: T2, human MHC class II DR protein …
Assay: SPR (BIAcore), chip density 4000 RU MHCII

In order of falling Kd:
1. B12  108 nM
2. B14  90.1 nM
3. B16  78.3 nM

In order of rising koff:
1. B16  0.0083 s⁻¹
2. B14  0.0166 s⁻¹
3. B12  0.0209 s⁻¹

In order of rising kon:
1. B16  106000 M⁻¹ s⁻¹
2. B14  185000 M⁻¹ s⁻¹
3. B12  193000 M⁻¹ s⁻¹

Molecular target: T2, human MHC class II DR protein …
Assay: ELISA, coated antigen, Fab 100 ng/well, read at 370 nm
Procedure: (§1) After washing in PBS the anti-human IgG F(ab')_2-peroxidase-conjugate at a 1:10,000 dilution in TBS (supplemented with 5% w/v non-fat drymilk/0.05% v/v Tween 20) was added to each well for 1 h. Final washes were carried out in PBS followed the addition the substrate POD (Roche).

In order of rising ELISA signal:
1. B7  1.26
2. B6  1.3
3. B3  1.4
4. B4  1.47
5. B9  1.49
6. B8  1.55

Each binder was assayed against T3, BSA (bovine, UniProt P02769 25-607) in the same assay as above.
T3 construct: negative control antigen; also called bovine serum albumine
T3 sequence (P02769 25-607 limits assumed): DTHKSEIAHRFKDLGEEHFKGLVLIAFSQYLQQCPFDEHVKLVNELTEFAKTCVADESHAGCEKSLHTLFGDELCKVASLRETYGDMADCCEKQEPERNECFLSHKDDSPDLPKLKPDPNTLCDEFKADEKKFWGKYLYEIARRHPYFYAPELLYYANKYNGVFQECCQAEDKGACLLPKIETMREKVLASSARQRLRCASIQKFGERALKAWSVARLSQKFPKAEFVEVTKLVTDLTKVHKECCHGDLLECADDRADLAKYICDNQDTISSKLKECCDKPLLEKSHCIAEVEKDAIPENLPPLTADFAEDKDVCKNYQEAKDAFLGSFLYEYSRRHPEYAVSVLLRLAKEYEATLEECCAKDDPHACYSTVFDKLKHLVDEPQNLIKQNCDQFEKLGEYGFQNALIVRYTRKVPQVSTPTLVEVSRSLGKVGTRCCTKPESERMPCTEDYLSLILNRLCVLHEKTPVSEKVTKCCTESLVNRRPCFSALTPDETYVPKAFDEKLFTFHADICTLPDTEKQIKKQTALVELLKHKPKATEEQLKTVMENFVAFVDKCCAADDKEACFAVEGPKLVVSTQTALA
Procedure: as §1

In order of rising ELISA signal:
1. B6  0.003
2. B7  0.003
3. B3  0.008

B3: no binding (tested: 100 ng/well).
B6: no binding (tested: 100 ng/well).
B7: no binding (tested: 100 ng/well).

What follows are binders tested against T4, lysozyme in the same assay as above.
T4 construct: negative control antigen
T4 sequence (P00698 19-147): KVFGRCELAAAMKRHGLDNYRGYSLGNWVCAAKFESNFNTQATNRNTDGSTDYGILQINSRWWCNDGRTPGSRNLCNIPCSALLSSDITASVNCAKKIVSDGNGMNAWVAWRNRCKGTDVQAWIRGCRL
Procedure: as §1

In order of falling ELISA signal:
1. B7  0.014
2. B3  0.013
3. B6  0.006
